Test results as given in publication PMC6650482, “Tyrosine 51 residue of the syndecan-2 extracellular domain is involved in the interaction with and activation of pro-matrix metalloproteinase-7” (Scientific Reports, 2019).
Substitutions are numbered along the chain they refer to. Numbers in names are those of the source. Entries after “also recorded” stand apart in the source; their conditions may differ.

Experiments:
[1] = Circular dichroism secondary structure; assay type: physicochemical
Procedure: Figure 2 The pro-domain of MMP-7 is involved in its interaction with the syndecan-2 extracellular domain. (A) Schematic representations of the pro-domain of MMP-7 (PD) and the deletion mutants lacking the pro-domain, N-terminus (ΔN), C-terminus (ΔC) and both N- and C-terminus (ΔNC) (top). His-tagged MMP-7 pro-domain was purified with Ni-NTA agarose beads, separated by SDS-PAGE and stained with Coomassie Blue (bottom). (B) Purified GST-S2E, S2E-C and S2E-NII were incubated with His-tagged PD, or ΔN, ΔC or ΔNC MMP-7 pro-domain. Materials bound to glutathione-agarose beads were immunoblotted with an anti-His tag antibody (top). The membranes were then stripped and re-probed with an anti-GST antibody (bottom). […] Absorbance was measured at 450 nm. […]
Figure 4 The α2–3 helix of the MMP-7 pro-domain is involved in its interaction with the syndecan-2 extracellular domain. […] (C) The secondary structure of the α2–3 helix of the MMP-7 pro-domain was analyzed using CD in the presence of different concentrations of TFE (top). Quantitative estimations of the secondary-structure content were made with the CDPro software package, which includes the programs CDSSTR, CONTIN, and SELCON3. […] Smaller values of NRMSD indicate closer correspondence between calculated structures and the experimental data. […]

[2] = system: N-terminus of the extracellular domain of syndecan-2; experiment: In vitro binding of MMP-7 α2–3 helix with N-terminus of the syndecan-2 extracellular domain; parameters: species or system human; settings: His-tagged α2–3, GST-SDC2 mutants, anti-His immunoblot
Procedure: (§1) Figure 4 The α2–3 helix of the MMP-7 pro-domain is involved in its interaction with the syndecan-2 extracellular domain. (A) Structure of the MMP-7 pro-domain (PDB; 2MZE) and schematic diagram of the MMP-7 pro-domain (PD) and its deletion mutants. The indicated MMP-7 pro-domain mutants were purified with Ni-NTA agarose beads, separated by SDS-PAGE. Purified MMP-7 pro-domain mutants were incubated with GST-SDC-2. Materials bound to glutathione-agarose beads were immunoblotted with an anti-His tag antibody and the membranes were stripped and re-probed with an anti-GST antibody. Image is of a single membrane cropped to remove intervening lanes. (B) Purified GST-SDC2 mutants were incubated with His-tagged α2–3 helix of the MMP-7 pro-domain. Materials bound to glutathione-agarose beads were immunoblotted with an anti-His tag antibody (top) and the membranes were then stripped and re-probed with an anti-GST antibody (bottom). (C) The secondary structure of the α2–3 helix of the MMP-7 pro-domain was analyzed using CD in the presence of different concentrations of TFE (top). Quantitative estimations of the secondary-structure content were made with the CDPro software package, which includes the programs CDSSTR, CONTIN, and SELCON3. […] Smaller values of NRMSD indicate closer correspondence between calculated structures and the experimental data.

GST-SDC-2 = experiment: In vitro binding of MMP-7 pro-domain fragments to GST-SDC2; parameters: species or system human; settings: GST-SDC-2, glutathione-agarose beads, anti-His immunoblot
Procedure: as §1

[3] = molecular target: His-tagged pro-domain of MMP-7 (His-PD) (human, UniProt P09237 18-267, Limits are the UniProt activation peptide. Paper's NMR numbering + 24 = precursor numbering (Gln7=Q31, Glu32=E56, Gly48=G72, Ser52=S76). Deletion-construct numbering implies a PD of about 79 residues,); experiment: other fluorescence titration; tryptophan quenching; 15 uM His-PD, S2-P titrated up to 1:200 molar ratio; PBS pH 7.4, 298 K; excitation 280 nm, intensity at 347 nm; settings: both partners purified
Sequence of His-tagged pro-domain of MMP-7 (His-PD) (human, UniProt P09237 18-267, Limits are the UniProt activation peptide. Paper's NMR numbering + 24 = precursor numbering (Gln7=Q31, Glu32=E56, Gly48=G72, Ser52=S76). Deletion-construct numbering implies a PD of about 79 residues,) (P09237 18-267): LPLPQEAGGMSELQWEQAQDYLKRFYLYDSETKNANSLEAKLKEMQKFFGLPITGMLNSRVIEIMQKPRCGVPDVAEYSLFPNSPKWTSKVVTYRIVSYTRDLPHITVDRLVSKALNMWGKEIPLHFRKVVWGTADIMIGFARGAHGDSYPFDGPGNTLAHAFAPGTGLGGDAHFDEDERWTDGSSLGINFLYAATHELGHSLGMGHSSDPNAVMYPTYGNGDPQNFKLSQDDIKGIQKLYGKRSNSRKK

[4] = molecular target: T1, His-tagged pro-domain of MMP-7 (His-PD) (Homo sapiens, UniProt P09237); experiment: In vitro binding (GST pulldown / anti-His immunoblot) with His-PD; settings: GST-tagged proteins
T1 construct: His tag; pET32a(+) vector-encoded fusion part (thioredoxin/S-tag by own knowledge of the vector); made in house
T1 sequence (P09237 18-94 limits assumed): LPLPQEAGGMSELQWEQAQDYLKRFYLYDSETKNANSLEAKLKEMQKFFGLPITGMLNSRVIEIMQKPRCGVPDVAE
Source text: Figure 1 The N-terminus of syndecan-2 interacts with the pro-domain of MMP-7. (A) Schematic representation of the syndecan-2 core protein (SDC2) and MMP-7. The signal peptide (SP), the extracellular domain (EC), the transmembrane domain (TM), and the cytoplasmic domain (CT) of syndecan-2 are noted, and the various deletion mutants are indicated. A peptide corresponding to residues 41–60 of the syndecan-2 extracellular domain (S2-P) was synthesized. Syndecan-2 is labeled with amino acid numbers to show the location of each deletion (left). Schematic representation of MMP-7. The pre-domain (Pre), pro-domain (PD), and catalytic domain are shown (right top). Purified GST-SDC2 mutants and the His-tagged pro-domain of MMP-7 were separated by 15% SDS-PAGE and stained with Coomassie Blue (right bottom). (B) Purified GST or GST-SDC2 mutants were incubated with His-tagged pro-domain of MMP-7 (His-PD). Bound materials were subjected to immunoblotting with an anti-His tag antibody (top). The membranes were then stripped and re-probed with an anti-GST antibody (bottom). (C) Purified GST-SDC2 was incubated with purified His-PD MMP-7 plus the indicated amounts of S2-P for 2 h at 4 °C. Bound materials were subjected to immunoblotting with an anti-His tag antibody (top). […] (D) Fluorescence spectroscopy indicates the binding affinity between His-PD and S2-P peptide. […]

[5] = system: His-tagged ΔNC MMP-7 pro-domain; experiment: In vitro binding of GST-SDC2 mutants to His-ΔNC; parameters: species or system human; settings: 2 h at 4 °C, immunoblot
Procedure: Figure 2 The pro-domain of MMP-7 is involved in its interaction with the syndecan-2 extracellular domain. (A) Schematic representations of the pro-domain of MMP-7 (PD) and the deletion mutants lacking the pro-domain, N-terminus (ΔN), C-terminus (ΔC) and both N- and C-terminus (ΔNC) (top). His-tagged MMP-7 pro-domain was purified with Ni-NTA agarose beads, separated by SDS-PAGE and stained with Coomassie Blue (bottom). (B) Purified GST-S2E, S2E-C and S2E-NII were incubated with His-tagged PD, or ΔN, ΔC or ΔNC MMP-7 pro-domain. Materials bound to glutathione-agarose beads were immunoblotted with an anti-His tag antibody (top). The membranes were then stripped and re-probed with an anti-GST antibody (bottom). (C) ELISA plates coated with 600 ng of S2-P were incubated with the indicated His-tagged MMP-7 pro-domains (500 ng/well) for 2 h at 20 °C. The plates were washed, incubated with an anti-His tag antibody followed by IgG-HRP, and developed with TMB-ELISA. Absorbance was measured at 450 nm. Data are shown as mean ± S.D. (n = 3), *p < 0.05 versus blank. (D) Purified GST-SDC2 was mixed with His-tagged ΔNC for 2 h at 4 °C., separated by SDS-PAGE, and immunoblotted with anti-His or -GST antibodies. (E) The secondary structures of the MMP-7 pro-domain mutants of ΔN, ΔC and ΔNC were diluted to 50 μM in a buffer consisting of 10 mM HEPES and 20 mM NaCl, pH 8, and kept at 20 °C. […]

[6] = system: His-tagged α2–3 helix of the MMP-7 pro-domain; experiment: In vitro binding of GST-SDC2 proteins to His-tagged α2–3; parameters: species or system human; settings: 2 h at 4 °C, glutathione-agarose beads, immunoblot
Procedure: as §1, with “data. […]” for “data.”

α2–3: α2 helix-loop-α3 helix protein fragment of the MMP-7 pro-domain
helicity ([1]; CD, α-helical fraction from CDPro, without TFE): 75% | secondary structure by CD (qualitative) ([1]; far-UV CD, pro-domain mutants at 50 μM, 10 mM HEPES, 20 mM NaCl, pH 8, 20 °C (Fig. 2E), α2–3 in Fig. 4C): had a helical structure, as suggested by the presence of minima (negative peaks) at 208 and 222 nm | interaction with the N-terminus of the extracellular domain of syndecan-2 (pulldown, qualitative) [2]: interacted with the N-terminus of the extracellular domain of syndecan-2 | interaction with syndecan-2 (pulldown, qualitative) (GST-SDC-2): interacted with syndecan-2, although to a slightly weaker degree than ΔNC; also recorded: interacted with recombinant syndecan-2 in vitro

B1: synthetic human syndecan-2 peptide (S2-P), extracellular domain residues 41-60 (peptide)
peptide: SGVYPIDDDDYASASGSGAD
notes: human syndecan-2 extracellular domain residues 41-60; also called S2-P peptide; source: synthetic peptide (Fmoc solid-phase, Anygen Inc.)
Kd [3]: 1586 ± 12 µM

B2: S2E: GST-tagged syndecan-2 extracellular domain (protein)
chain: ESRAELTSDKDMYLDNSSIEEASGVYPIDDDDYASASGSGADEDVESPELTTSRPLPKILLTSAAPKVETTTLNIQNKIPAQTKSPEETDKEKVHLSDSERKMDPAEEDTNVYTEKHSDSLFKRTE
modifications: left off: GST, end not stated, kept
notes: GST-tagged syndecan-2 extracellular domain
interaction with His-PD (pulldown, qualitative) [4]: interacted with the pro-domain of MMP-7

B3: D49A: substitution of Asp49 with Ala in the syndecan-2 extracellular domain (protein)
chain: B2 chain with D31A
modifications: left off: GST, end not stated, kept
notes: substitution of Asp49 with Ala in the syndecan-2 extracellular domain
interaction with His-tagged ΔNC (pulldown, qualitative) [5]: did not affect its interaction

B4: Y51A: substitution of Tyr51 with Ala in the syndecan-2 extracellular domain (protein)
chain: B2 chain with Y33A
modifications: left off: GST, end not stated, kept
notes: substitution of Tyr51 with Ala in the syndecan-2 extracellular domain
interaction with α2–3 (pulldown, qualitative) [6]: failed to interact with the α2–3 | interaction with His-tagged ΔNC (pulldown, qualitative) [5]: significantly reduced the interaction

B5: recombinant syndecan-2: Purified GST-SDC2 (protein, UniProt P34741 19-201, looked up)
Syndecan-2: ESRAELTSDKDMYLDNSSIEEASGVYPIDDDDYASASGSGADEDVESPELTTSRPLPKILLTSAAPKVETTTLNIQNKIPAQTKSPEETDKEKVHLSDSERKMDPAEEDTNVYTEKHSDSLFKRTEVLAAVIAGGVIGFLFAIFLILLLVYRMRKKDEGSYDLGERKPSSAAYQKAPTKEFYA
modifications: GST tag
notes: Purified GST-SDC2
interaction with α2–3 (pulldown, qualitative) [6]: interacted with the α2–3
